B1: RSPH3 (parent)
chain: VDVQTELYLEEIADRIIEVDMECQ
B2: MTMR15 (parent)
chain: YVKAKKSIDKDEEFAGSSPQSSKS

Variants of: B1
Experiment: protein stability index of a GFP-peptide fusion (GPS, HEK-293T) (PSI 1-6); higher = more stable
Details: c terminus: a fixed tail appended
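Also: lentivirally expressed fusions sorted by FACS into six bins by GFP to DsRed ratio, PSI derived from sequencing read proportions per bin multiplied by bin number.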

| Variant | protein stability index |
| --- | --- |
| I17C | 2.58 |
| I17D | 3.99 |
| I17E | 3.87 |
| I17F | 1.96 |
| I17G | 4.14 |
| I17H | 2.94 |
| I17K | 3.65 |
| I17L | 2.17 |
| I17M | 1.87 |
| I17N | 2.81 |
| I17P | 4.26 |
| I17Q | 3.47 |
| I17R | 3.33 |
| I17S | 3.74 |
| I17T | 3.6 |
| I17V | 2.39 |
| I17Y | 2.09 |
| E18A | 2.22 |
| E18C | 2.48 |
| E18D | 3.12 |
| E18F | 2.26 |
| E18G | 2.86 |
| E18H | 2.31 |
| E18I | 2.01 |
| E18K | 2.59 |

| Variant | protein stability index |
| --- | --- |
| E18M | 1.94 |
| E18N | 2.7 |
| E18P | 2.79 |
| E18Q | 1.57 |
| E18R | 2.51 |
| E18S | 2.44 |
| E18T | 2.23 |
| E18V | 2.85 |
| E18W | 2.23 |
| E18Y | 2.03 |
| V19A | 3.81 |
| V19C | 1.89 |
| V19D | 5.01 |
| V19E | 4.65 |
| V19F | 2.3 |
| V19G | 4.16 |
| V19H | 3.55 |
| V19I | 2.36 |
| V19K | 4.5 |
| V19L | 1.59 |
| V19M | 2.79 |
| V19N | 4.1 |
| V19P | 4.3 |
| V19Q | 3.76 |
| V19R | 4.23 |

| Variant | protein stability index |
| --- | --- |
| V19S | 4.1 |
| V19T | 3.95 |
| V19W | 2.28 |
| V19Y | 2.58 |
| D20A | 2.54 |
| D20E | 1.71 |
| D20F | 3.1 |
| D20G | 1.85 |
| D20H | 2.46 |
| D20I | 3.01 |
| D20K | 2.24 |
| D20L | 4.62 |
| D20N | 1.82 |
| D20P | 3.46 |
| D20Q | 3.34 |
| D20R | 1.15 |
| D20S | 1.65 |
| D20T | 3.29 |
| D20V | 2.51 |
| D20Y | 4.28 |
| M21A | 3.23 |
| M21C | 2.38 |
| M21D | 4.54 |
| M21E | 3.85 |
| M21F | 1.47 |

| Variant | protein stability index |
| --- | --- |
| M21G | 4.38 |
| M21H | 3.59 |
| M21I | 1.91 |
| M21K | 2.27 |
| M21L | 1.66 |
| M21N | 2.99 |
| M21P | 4.45 |
| M21Q | 2.49 |
| M21R | 3.8 |
| M21S | 3.85 |
| M21T | 3.43 |
| M21V | 1.99 |
| M21W | 1.76 |
| M21Y | 1.94 |
| E22A | 1.99 |
| E22C | 1.89 |
| E22D | 2.77 |
| E22F | 1.9 |
| E22G | 3.05 |
| E22H | 2.06 |
| E22I | 2.81 |
| E22K | 2.27 |
| E22L | 2.53 |
| E22M | 2.83 |
| E22N | 2.86 |

| Variant | protein stability index |
| --- | --- |
| E22P | 2.88 |
| E22Q | 2.01 |
| E22R | 2.03 |
| E22S | 2.22 |
| E22T | 2.17 |
| E22V | 1.57 |
| E22Y | 2.82 |
| C23A | 3.46 |
| C23D | 4.4 |
| C23E | 4.22 |
| C23F | 2.07 |
| C23G | 3.72 |
| C23H | 4.03 |
| C23I | 2.23 |
| C23K | 4.46 |
| C23L | 3.52 |
| C23M | 2.34 |
| C23N | 3.87 |
| C23P | 4.06 |
| C23Q | 4.31 |
| C23R | 3.46 |
| C23S | 3.85 |
| C23T | 3.68 |
| C23V | 5.09 |
| C23W | 1.88 |

| Variant | protein stability index |
| --- | --- |
| C23Y | 2.71 |
| Q24A | 1.95 |
| Q24C | 2.32 |
| Q24D | 2.82 |
| Q24E | 2.31 |
| Q24F | 1.14 |
| Q24G | 2.79 |
| Q24H | 2.52 |
| Q24I | 2.32 |
| Q24K | 2.12 |
| Q24L | 1.33 |
| Q24M | 1.59 |
| Q24N | 2.05 |
| Q24P | 3.33 |
| Q24R | 2.52 |
| Q24S | 2.72 |
| Q24T | 3.69 |
| Q24V | 1.84 |
| Q24W | 1.5 |
| Q24Y | 2.69 |

Variants of: B2
Experiment: as above
Details: c terminus: a fixed tail appended

| Variant | protein stability index |
| --- | --- |
| S21H | 3.24 |
| I8R | 2.98 |
| Q20V | 2.84 |
| A4T | 2.39 |
| F14S | 3.46 |
| S24W | 3.03 |
| E13M | 2.39 |
| S18D | 3.18 |
| D11E | 2.85 |
| I8T | 3.22 |
| S21D | 3.31 |
| S17L | 2.93 |
| D9T | 2.91 |
| S24M | 3.02 |
| P19C | 3.23 |
| G16Q | 3.21 |
| V2R | 5.42 |
| S18P | 3.04 |
| P19L | 2.54 |
| E13D | 3.49 |
| S7E | 3.58 |
| E12P | 2.68 |
| A4F | 2.89 |
| P19Q | 3.18 |

| Variant | protein stability index |
| --- | --- |
| E13A | 2.65 |
| P19S | 3.42 |
| K6E | 3.95 |
| I8L | 3.07 |
| F14L | 3.27 |
| S17M | 2.85 |
| S7G | 3.11 |
| A15C | 2.64 |
| A15D | 3.63 |
| K10T | 3.28 |
| S24P | 3.02 |
| K10Y | 2.72 |
| K10W | 2.96 |
| K6F | 3.02 |
| D11Q | 2.94 |
| F14A | 3.25 |
| Q20G | 3.27 |
| S22D | 3.58 |
| P19I | 2.92 |
| F14T | 3.55 |
| E12I | 2.41 |
| S17N | 2.9 |
| V2Q | 5.09 |
| P19D | 3.37 |

| Variant | protein stability index |
| --- | --- |
| S17E | 3.59 |
| K5R | 2.73 |
| K23W | 2.58 |
| D11R | 2.45 |
| A15L | 3.05 |
| K6G | 3.15 |
| Y1H | 5.11 |
| K3P | 2.04 |
| S21A | 3.23 |
| S18A | 2.99 |
| K23M | 3.1 |
| Y1C | 5.51 |
| G16I | 2.86 |
| Q20C | 2.82 |
| K6V | 2.64 |
| G16R | 3.06 |
| E12D | 2.69 |
| D11Y | 2.77 |
| F14H | 3.47 |
| Y1N | 5.4 |
| A4P | 3.19 |
| V2A | 5.13 |
| Y1I | 5.52 |
| S18H | 2.68 |

| Variant | protein stability index |
| --- | --- |
| V2I | 4.23 |
| K10F | 2.26 |
| V2F | 4.74 |
| D11G | 2.88 |
| S24Y | 2.83 |
| E12M | 2.93 |
| D11T | 2.5 |
| K6T | 3.5 |
| S24N | 3.61 |
| Q20R | 2.73 |
| K10I | 3.21 |
| Q20A | 2.66 |
| S24G | 2.93 |
| D11S | 3.05 |
| I8C | 2.83 |
| G16C | 3.22 |
| E13L | 2.74 |
| P19K | 2.63 |
| Q20D | 3.24 |
| Q20E | 3.29 |
| I8M | 3.22 |
| S24D | 2.94 |
| V2G | 5.2 |
| K5Y | 2.07 |

| Variant | protein stability index |
| --- | --- |
| V2H | 4.49 |
| E12H | 2.71 |
| K6A | 2.98 |
| S17G | 3.17 |
| P19W | 2.42 |
| E12L | 2.78 |
| S24A | 3.29 |
| D11F | 2.48 |
| S24F | 2.79 |
| S17V | 2.35 |
| S7L | 2.85 |
| A15F | 1.91 |
| Y1D | 5.62 |
| D9E | 2.9 |
| Q20N | 2.96 |
| S17I | 2.96 |
| K5N | 3.62 |
| E13H | 3.02 |
| D9R | 3.05 |
| E12C | 2.59 |
| Q20F | 2 |
| K3W | 3.1 |
| S7H | 3.05 |
| Y1Q | 5.48 |

| Variant | protein stability index |
| --- | --- |
| A15V | 3.42 |
| F14E | 3.94 |
| K3G | 2.27 |
| K5H | 2.8 |
| K6L | 2.55 |
| D11H | 2.92 |
| S17D | 3.03 |
| S24C | 3.13 |
| S18R | 3.13 |
| S21M | 3.31 |
| Y1L | 5.14 |
| D11N | 2.87 |
| K6R | 3.43 |
| S24R | 2.37 |
| K10S | 3.25 |
| A4M | 3.31 |
| G16H | 2.71 |
| Y1T | 5.69 |
| Y1F | 2.79 |
| K3A | 2.87 |
| D9H | 3.27 |
| F14Y | 3.5 |
| A4W | 1.8 |
| Q20M | 2.92 |

| Variant | protein stability index |
| --- | --- |
| S18T | 2.64 |
| S21V | 1.22 |
| P19Y | 3.02 |
| P19E | 2.94 |
| P19G | 3.43 |
| A15Q | 3.16 |
| K3V | 3.85 |
| S7M | 3.33 |
| S21K | 2.92 |
| E12T | 3.21 |
| S24L | 2.71 |
| P19R | 2.45 |
| I8V | 2.97 |
| K23F | 3.02 |
| K23C | 3.5 |
| K3M | 3.28 |
| I8W | 3.22 |
| S18W | 1.7 |
| S21C | 3.01 |
| K23I | 2.76 |
| K23T | 3.46 |
| V2K | 5.26 |
| F14M | 3.12 |
| P19F | 2.71 |

| Variant | protein stability index |
| --- | --- |
| A15E | 3.31 |
| G16T | 2.85 |
| G16M | 3.21 |
| K3N | 3.52 |
| G16V | 2.42 |
| S22E | 3.47 |
| F14V | 3.61 |
| I8D | 3.7 |
| K3F | 3.3 |
| E12G | 2.8 |
| S21G | 2.61 |
| K23E | 3.55 |
| K23D | 3.11 |
| S21R | 2.78 |
| A15S | 2.92 |
| I8Q | 3.3 |
| A4V | 3.08 |
| S22T | 2.87 |
| E12W | 2.27 |
| K6H | 3.26 |
| K10E | 3.26 |
